The target of the assay is CD3 (target of Table E-1) (UniProt P07766). The experiment in a line: Biacore (SPR; format not stated).

As for Anti-CD3 Fab OKT3, the Kd (usually the equilibrium constant for the complex coming apart) came out at 9.62 nM.

Source of the values: US20240287186A1.
